Reference: a protein production outcome set (Wang et al. 2014)

Assay: label from the status in PepcDB records
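Also: failed if final PepcDB status was selected cloned or expressed and not failed if soluble or beyond.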

Sequence | protein production
PEQHRLRYQSLKQQLDDYYQEVTVQNYLDLTTRSHAFDQWLNNNIQLDWVKATVVKDAPDKIRAKANKEQHLNFQLIKHLEKPEDNVDLISAYFVPEKQGAKHLSDMAQDGIKVRVLTNSFKANDVPVVHAFYAKYRQELLENGVQLYEFLPTLEKEELDKYTDELVKKAKVSIKGLSRSSLHAKMMALDQKQVFIGSFNFDPRSAYLNTEIGVILNSPPLAMAVHQTMDQQLTHYAYKLVLDANHKINWYRQTS | failed
MLEACTKCGTCAEACTMYLGSGRKKIYSPVYRSDMLRKIYKKHFTLTGKLFGPLIGAKDPTEDDINALAESAYRCTVCRRCALACPFGLDNGLITRETRKIFADLGILEHHHHHH | failed
MKIKTSYLIYAVIATVFAGLSMVTDIFEKGNFEAIFSNLGMIIGLSILAYILITMAKSFIDLVINELKN | failed
VNNTKVTNSEESLSVVDDFVKSVWPTAKQAASLIGLDPKLLVAQAALETGWGRFVTRDADGSSSNNLFNIKTGSHSEVESIQVKTTEYIADTPIKINASFRKYPSIEHSFHDYVSLIKGSERYQMALANAENPEIFVSELNKAGYATDPNYSNKILSIYHGDE | failed
MKIRTTLTLQYAGITAAVFFAFVIAVYYVSEHSRSNAFFRNLQSEAITKAHLFLNNQVDAKTMQSIYLNNQKFINEVEVAVYTTDFKILYHDALQNDIVKETPEMVKRILKRKNISFYVDEYQAIGLVYPFEGQYYIVTAAAYDGYGYANRDALRNMLILLFIGGLSVLAIVGYILSRSTLKPIRNIVREAEKITASHIDKRLPVKNEQDELGELSITFNALLERLEKSFNSQKMFVSNVSHELRTPMAALTAELDLALLKERTSGQYQAAIGNALQDSRRIINLIDGLLNLAKADYQSEQITMEEVRLDELLLDARELVLKAHPDYHIELVFEQEAEEDNVLTVIGNSYLLTTAFVNLVENNCKYSSNRTSSVLIAYWEQWAIIRLSDNGVGMSDADKENLFKLFYRGENKNIAPGNGIGMVLTQKIIHLHKGELTVSSHKDEGTTFVVKLPHI | failed
MWYSTVRNPSIALIKQGYHILAEYNLVKEELKNIYAIPSYACGLHWFGVIFVHSGIYAGSVFRFSILLPENFPADISLPTVVFSTEVLHPHICPQNKTLDLAHFLNEWRKDEHHIWHVLRYIQAIFADPEGSICTGQSSSGDLVIMDEVRNMNALNMLAKSRPEYIKRVQEQAILSRNLIYDRPPTEDPHYIIVEPYCAERHLKFMDQLKSPCWKEATSMDCSQPSEYLGHIDSSRQLDEEEANQVEKLHRGRIPEHQREESEVSL | failed
MDIITKMQVDVPRETVFEAFVDPEKIGGFWFSSSSERWEQGKTITLRYEEYDAELNINIERVEDNQLIAFTWGAHPITIQFEESEAGTVVTTTEKDFDTQDVKQLLGQKEGWVYMLSCLKVYLEHGVTIRAAILLEHHHHHH | failed
MILLIMNTDDFQFFIRVADCGSLSKAAQEANISVSVASQRIQRLESTLKLRLFYRTTRKITLTDEGRKLLDFGRYWLDDFITLKDTLTARDKPLTGNLRVTTSATFGIKILTKVIANFALLHPTLNIYLDLNDQNIDLIEHGMDLAIRIGKLNDSSLVAKPLMTNHRLICAAPSYLNQYGMPHSIEDLQQHRCILQQHQNGLTDHWQLIDQKRTVVDVHLKAYFTTNSGEAIRQAALQGLGISNHSRWHVADDLEQGHLIELLPEYQIEPTTIYAVFPNRQFRQPKTELFLSYLQNYFKHEYPWNIRKN | failed
MQGIGEGVRRAFPIVLGYVPVGFAFGVLALKSGIPAWGALAMSLFVFAGSGQLIAVGLIGGGAPLASVVLTTFVVNLRHLLMSAALAPRLRDWGLLRQALFSAEMTDETFAVHVSTLRGEADDPSRAAVFACNVTAHAAWVGGSALGVFCSTLVADVRPLGLDYALAAMFIALLLPQCRSRAHLFAALVAGACSVGFALSGAGRWNVMLATVCAATLVSLLPVGKTSTTREEMGTPGGEGGAHAD | failed
MGSSHHHHHHSSGRENLYFQGMRLKSEMFVSALIRRVFAAGGFAAVEKKGAEAAGAIFVRQRLRDGRENLYGPAPQSFADDEDIMRAERRFETRLAGVEGEEIAALLERERRFDSDLWVVEIETDEIGTLLTLVDQPQA | not failed
MESWKVNLISVWFGCFFTGLAISQILPFLPLYVSQLGVTSHEALSMWSGLTFSVTFLVSAIVSPMWGSLADRKGRKLMLLRASLGMAIAILLQAFATNVWQLFILRAIMGLTSGYIPNAMALVASQVPRERSGWALSTLSTAQISGVIGGPLLGGFLADHVGLRMVFFITAILLTISFLVTLFLIKEGVRPQVSKSERLTGKQVFASLPYPGLVISLFFTTLVIQLCNGSIGPILALFIKSMAPDSNNIAFLAGMIAAVPGVSALISAPRLGKLGDRIGTSRILLATLCCAVVMFFAMSFVTTPLQLGTLRFLLGFADGAMLPAVQTLLLKYSSDSVTGRIFGYNQSFMYLGNVAGPLIGASVSAMAGFRWVFIATAIIVFINLWQLAWMLRQTRRANA | not failed
MSDTVLTGLLDTVWQQFGRGTKDRHHPARHPTLATIGTDGPDLRTLVLRAASHAEATLEFHTDAASPKVAHIRRDARVAIHIWIPKASLQVRAKAIAKILPGDPNLFAQLPEAARMNYQGPVPGTPLPAEPDATPNRFTRLICHLSEIDVLHLTTPHQRAVYTAPDWRGIWVSP | not failed
MTYMYDHDHIPKHITATIWEHLQRENPNFFKEYNKRCELVRQIVTLNDLLAQQIDLMQRLSQLDVGTTAPVTKLQEPNDHHHDEVQTLEQWLETNGFANIEDTFLCLSDLVDAPVTEVQKPKDKDQSCDQWINGSNDLASIEETVSSLINPSPFAETPQSEPPGLRYDTDCACITATSNLVTWVYDPSGDNKSGVEISSERRFGANISLERRRPREAGFTEQRPPSVLDGGRITGPLSSEPTMTH | failed
MENRAHAFLAGLFTIGLAIFIALAVVWFNRDQTVRVPYEVVTRSTVNGLSPQAAVKYRGLDVGKVDSIRFDDRVPGQIIVRVLVDKDAPITTTTYGRLAYQGVTGLAYVQLDDRGYDGGKRAANPTRLETSDRRPARIAMEAGFLDELDKRGDQMLARIDQTLSSLSALFDDEHRQALMAAMQSFQGTMDSYNALARQAEPTMRRLPQIADNLDATLSATRRLSQSLSDPKGPLMGTLASAGNDLSSASQSMQAATNVLANETLPQLNGFAREARQAVRSFDHAVTDFNTRPQSVLFGPAPATPGPGETGFAAPQVSAAPSVAVPATARP | failed
MVSDWLLLAPPAAFITAALALFVVDAISSDETSGWLLSGVTTAGGLAAAAIAGVLLLSETAAGGVELFGGQLVVDGMSLLFTFIFGSVTALVAVASLDYIRDLPHKAEYYLLISLAATGMSLMASANSLVVVFISLELASLPSYALVAYLKNNRGSVEAGLKYFLIGALSSGIMLYGISLIYATTGSFLLGDIAASVGEAASTHPGVFGVGLLMVIGGFAFKTASVPFHFWAPDAYEGAPAPVAAFLSSASKAAGFVIAFRVLLVGFPIQEVAATVDWVLLFQILAVVTMTVGNFAAATQSNVKRMLAYSSIGHAGYVLIGLAALTNVGGPTAEATVLGASMLHLLVYGFMNTGAFLFVAMVEHWDVGRTFEDYNGLAREAPLACVAMTIFLFSLAGLPVGGGFLSKYYLVVGAVGTGVWWLAVVLAINSALSLYYYSRVVKAMWIESPAESLTIERYPTALYAAVMAAAAVTVLLLPGLFVFDGAAFDAAAALL | failed
MATVRLVTRKRAGRSSRPSAASLPARSAVERNSSGPLLSKSRYVRIMAARRSSSLRQQQGRLEWGGRSRPVELATRSFEKQGDATAFFKAMLNRHQPGERVSDEDGLDVAALLERHTEYVAKVGCGVSHFQVMMTEHGTQCFRIIRTDGSGTDFSYPHCISQRPPSRKQEVAQAFRRAVRFDLYKARDNLFATHSGSDGLVSCAVTGERIAQDEGHMDHRPPMTFEVIVTTFLCGRGLSLDNVPLTTGKDDQVSPEVTDNALSEAFRAYHAGIARLDFVRNTVNLAQASRHRLKDGRITLTG | failed
MKIIELPIEFEFNGQKQCIYPSLIILHNELTLVDTGYPSFLPLIENAILKHGYEMKNLKNIIITHYDDDHIGAVYDFKVKYPNINVIASEIESNYINGDIKSERLVQAEEMLERMPNEEKEFGKWFIQQLKNIKHISVDEKVHDGQMILNNECQVVATPGHTSGHISLYFPNLDCVITGDAAVQENRELVIANPNFCLDIEKAKQSLNRIKSFKAAQYYCYHGGKLTV | failed
MNPAYRKAMLESEIQKLLMEALQQLRDPRLKKDFVTFSRVELSKDKRYADVYVSFLGTPEERKETVEILNRAKGFFRTFIAKNLRLYVAPEIRFYEDKGIEASVKVHQLLVQLGYDPLKDKEKKEEDKEEE | not failed
MRTAVAVPYHSGIRLPLLFEKNARMTETIDTNVFNLAPVAMWIEDFSEVKSQFDIWRAEGIEDIRAFLLEDLSRVAACSQKIRVIEVNAKTLELFEARDQAHLVDNLHRIFRDDMLESHVNELSELWAGRTEFTSNAVNYSIGGRRLDIQLRGTVIPGHEDTLGRLLLTTEDVTEREEARRKELLNRRYAEGMFKHSPVSLWVEDFSRVRRLIEEVRERGIVDFRVFMDVHPEFVRQCMSEIRVIDVNQATLDLFCAADRQVLLQRLGDIFRGEMEKPFREQLIELWNGNLTHHREVVNYALDGSERHVLLHFSVFPGHERDWSLVQVALTDITARKKAEAYLEYLGKHDVLTKLHNRAFYSDELNRLERSALRPVSAIVIDLNGLKEANDKLGHDAGDALLRRVGEVLNGVVTAPNHAARIGGDEFAILLPGADKQVAAAMVDTVYELLKINNQFYSSAPLSLSLGVATTEAGETMESLVRRADMNMYEQKNAYYAALRNRSADNNDTTKGGSQSETTSLKRLF | failed
MDKFYHFLTLTGIGLYWFLVAGVTLRVVLKRRAVSVSLAWLMIIYILPVLGVACYFLFGELNLGRKRAERAKEMFTPFAKWFSQLNDCHAHMPETMGRHIYRIDELCNNRLGLPALSGNTLSLQQSPDEILHSIIEDIENAKTSIRMVFYIWHPGGLADSVASALIQASKRGVDVKLLLDSAGSPRFFRSPWYKMMKDSGIEVIQALEVKMWRMFLRRLDLRQHRKIIVIDDEIAYTGSMNLVDPAYFKQSSGVGRWIDIMVRVTGPTVNVLSAIHCWDWEVETGERYLPKLPECKIDNSKYQHPIQVVPSGPGMPEYLIYQVLTLAINQANRSVRITTPYFVPNTDLLETLKMTAQRGIDVELIIPHKNDSLMVQWASRAFYSELLAAGVKIYEFYGGLLHTKSVVIDDQFCLVGTVNMDMRSLWLNFEVTLAVDDEEFTKQLSWLQDGYIKQSHPVVLDEWEKRSLYSRFLERVFYLFNPLL | failed
MSTDFAAARLNMVESQIRTADVTDLPLQDALRVVARESVVPASKAYLAYADADIEYAPGRWLLRPREVGKLLQALKPREGETVLAIAAPYAAAVLEKMGLSVTRHDGEDLKTVPAGAYDVIVCEGAVAVAPKSWQDALAHGGRLGVVERTGPVGRAAIYLRAEDGVGRRAAFDASPPLLAGFEAETGFSF | failed
MTTIDPRSELVDGRRRAGARVDAVGAAALLSAAARVGVVCHVHPDADTIGAGLALALVLDGCGKRVEVSFAAPATLPESLRSLPGCHLLVRPEVMRRDVDLVVTVDIPSVDRLGALGDLTDSGRELLVIDHHASNDLFGTANFIDPSADSTTTMVAEILDAWGKPIDPRVAHCIYAGLATDTGSFRWASVRGYRLAARLVEIGVDNATVSRTLMDSHPFTWLPLLSRVLGSAQLVSEAVGGRGLVYVVVDNREWVAARSEEVESIVDIVRTTQQAEVAAVFKEVEPHRWSVSMRAKTVNLAAVASGFGGGGHRLAAGYTTTGSIDDAVASLRAALGLEHHHHHH | not failed
KTFMIGVTSCISGDGKSFCSHNLARIYAISGKKTLLIRGDMRKAFNAPANLIPQGSMGLSQHLIGMATIDQIIHKGEIENLYQIIPGPVPPNASELVASQKMEEFIRIMKDKFEVVIMDSPPVGLVSDYMSVIKHIDANLYIVRYDYTPKETLEAIKDLKNKYPAQSHSIIFNGIT | failed
